From FireProtDB (doi:10.1021/bi051013y)

Details: Pleurotus ostreatus, Thermal, whole UniProt chain shown
[1] = pH 6, 25 °C, Absorbance, Carbonate 10 mM, reversible: yes
[2] = pH 6, Absorbance, Carbonate 10 mM, reversible: yes
[3] = pH 6, absorbance, HEPES, transition: 2, reversible: YES
[4] = pH 8, 25 °C, Absorbance, HEPES 10 mM, reversible: yes
[5] = pH 8, Absorbance, HEPES 10 mM, reversible: yes
[6] = pH 8, absorbance, HEPES, transition: 2, reversible: YES
[7] = pH 9, Absorbance, Borate 10 mM, reversible: yes
[8] = pH 9, absorbance, HEPES, transition: 2, reversible: YES
[9] = pH 10, 25 °C, Absorbance, Carbonate 10 mM, reversible: yes
[10] = pH 10, Absorbance, Carbonate 10 mM, reversible: yes
[11] = pH 10, absorbance, HEPES, transition: 2, reversible: YES
[12] = pH 11, 25 °C, Absorbance, Carbonate 10 mM, reversible: yes
[13] = pH 11, Absorbance, Carbonate 10 mM, reversible: yes

B1: wild type, Q56QW9 (protein)
chain: AYAQWVIILIHNVGQQNVKIKNLNASWGKLYADGDKDTEVPASKYEGMVIAPGDQVQINACGREDAAEGTTGTFDLVDPNDSDKQVRHISWDCPWGTKANSWVVGGSNSKWMIEYTGQNLDSGALGTITVNTLKIGN
Q: What does the source list for B1?
A: heat capacity change of unfolding [1]: 2.87 kcal/mol/K; unfolding enthalpy (van 't Hoff) [1]: 62.9 kcal/mol; unfolding free energy [1]: 7.27 kcal/mol; Tm [2]: 48.6 °C; unfolding enthalpy (van 't Hoff) [2]: 130 kcal/mol; Tm [3]: 48.6 °C; unfolding enthalpy (van 't Hoff) [3]: 130 kcal/mol; unfolding enthalpy (calorimetric) (pH 6, absorbance, HEPES): 62.9 kcal/mol; unfolding free energy (pH 6, absorbance, HEPES): 7.27 kcal/mol; Tm (pH 7, absorbance, HEPES, transition: 3, reversible: YES): 54.6 °C; heat capacity change of unfolding [4]: 2.87 kcal/mol/K; unfolding enthalpy (van 't Hoff) [4]: 64.5 kcal/mol; unfolding free energy [4]: 8.94 kcal/mol; Tm [5]: 51.2 °C; unfolding enthalpy (van 't Hoff) [5]: 140 kcal/mol; Tm [6]: 51.2 °C; unfolding enthalpy (van 't Hoff) [6]: 140 kcal/mol; unfolding enthalpy (calorimetric) (pH 8, absorbance, HEPES): 64.5 kcal/mol; unfolding free energy (pH 8, absorbance, HEPES): 8.94 kcal/mol; Tm [7]: 47.2 °C; unfolding enthalpy (van 't Hoff) [7]: 130 kcal/mol; Tm [8]: 47.2 °C; unfolding enthalpy (van 't Hoff) [8]: 130 kcal/mol; unfolding enthalpy (calorimetric) (pH 9, absorbance, HEPES): 66.2 kcal/mol; unfolding free energy (pH 9, absorbance, HEPES): 7.05 kcal/mol; heat capacity change of unfolding [9]: 2.87 kcal/mol/K; unfolding enthalpy (van 't Hoff) [9]: 60.5 kcal/mol; unfolding free energy [9]: 3.47 kcal/mol; Tm [10]: 39.4 °C; unfolding enthalpy (van 't Hoff) [10]: 102 kcal/mol; Tm [11]: 39.4 °C; unfolding enthalpy (van 't Hoff) [11]: 102 kcal/mol; unfolding enthalpy (calorimetric) (pH 10, absorbance, HEPES): 60.5 kcal/mol; unfolding free energy (pH 10, absorbance, HEPES): 3.47 kcal/mol; heat capacity change of unfolding [12]: 2.87 kcal/mol/K; unfolding enthalpy (van 't Hoff) [12]: 66.4 kcal/mol; unfolding free energy [12]: 2.32 kcal/mol; Tm [13]: 34.6 °C; unfolding enthalpy (van 't Hoff) [13]: 93.9 kcal/mol; unfolding enthalpy (calorimetric) (pH 11, absorbance, HEPES): 66.4 kcal/mol; unfolding free energy (pH 11, absorbance, HEPES): 2.32 kcal/mol
